Source: publication PMC6715450 (Nature, 2019)

Biological target: human apo-Calmodulin (cryo-EM complex) (human, UniProt P0DP23)
Experiment: cryo-EM structure

B1: full-length SidJ (cryo-EM complex) (enzyme)
chain: MFGFIKKVLDFFGVDQSEDNPSETAVETTDVSTKIKTTDTTQEESSVKTKTVVPTQPGGSVKPETIAPDQQKKHQIKTETTTSTTKQKGPKVTLMDGHVKQYYFARRGETSTHDTSLPPPVKVLSGRSIPLKEIPFEATRNELVQIYLTSIDKLIKSNKLNSIPSQQIASHYLFLRSLANSETDGIKKNQILSLAKPLGTYLASKEPHVWKMINELIEKSEYPIIHYLKNNRAHSNFMLALIHEYHKEPLTKNQSAFVQKFRDSSVFLFPNPIYTAWLAHSYDEDSSFNPMFRERLSTNFYHSTLTDNLLLRTEPKEVTLSSEHHYKKEKGPIDSSFRYQMSSDRLLRIQGRTLLFSTPQNDVVAVKVQKKGEPKSTLEEEFEMADYLLKHQRRLDVHSKLPQPLGQYSVKKSEILEISRGSLDFERFKTLIDDSKDLEVYVYKAPQSYFTYLHDKNQDLEDLTASVKTNVHDLFVLLREGIVFPQLADIFHTHFGEDEREDKGRYQALVQLLNVLQFQLGRIDKWQKAVEYVNLRSSGLADLGDSLPITSLFTSSDFTKHYFSELLTGGYHPTFFDKSSGTANSLFTGKRRLFGNYLYLNTIAEYLLVIQLTLGSYGDKVTRDMMDKPKKEAVWRELANVMFTSCAEAIHIMTGIPQSRALTLLKQRANIEKHFRQTQFWMTPDYSKLDEDTLQMEQYSIYSGEPEYEFTDKLVSGVGLSVDGVHQDLGGYNRESPLRELEKLLYATVTLIEGTMQLDKEFFKQLEQVEKILSGEIKTDANSCFEAVAQLLDLARPGCHFQKRLVLSYYEEAKLKYPSAPTDAYDSRFQVVARTNAAITIQRFWREARKNLSEKSDIDSEKPESERTTDKRL
B1: binds.
